The text below walks through data of PMC2946590, “Replication Past the γ-Radiation-Induced Guanine-Thymine Cross-Link G[8,5-Me]T by Human and Yeast DNA Polymerase η” (Journal of Nucleic Acids, 2010).

The term Km denotes the substrate concentration at which the rate is half of its maximum. The kcat is the maximal rate divided by the concentration of active sites. Broadly, the kcat/Km is the turnover number divided by the Michaelis constant.

Substrate in series [1]: Nc1ncnc2c1ncn2[C@H]1C[C@H](O)[C@@H](COP(=O)(O)OP(=O)(O)OP(=O)(O)O)O1
The series can be described thus: purified protein. The format is biochemical, Homo sapiens. The note with it: undamaged 26-mer template, misincorporation opposite G, 6.4 nM enzyme, 50 nM template-primer, 25 mM Tris-HCl pH 7.5, 5 mM MgCl2, 5 mM DTT, 37 °C.

Substrate in series [2]: Nc1ncnc2c1ncn2[C@H]1C[C@H](O)[C@@H](COP(=O)(O)OP(=O)(O)OP(=O)(O)O)O1
In words: purified protein. It is filed as biochemical, Saccharomyces cerevisiae. The conditions noted are these: undamaged 26-mer template, misincorporation opposite G, 6.4 nM enzyme, 50 nM template-primer, 25 mM Tris-HCl pH 7.5, 5 mM MgCl2, 5 mM DTT, 37 °C.

B1: human DNA polymerase η (hPol η) (Homo sapiens) (protein)
chain: MATGQDRVVALVDMDCFFVQVEQRQNPHLRNKPCAVVQYKSWKGGGIIAVSYEARAFGVTRSMWADDAKKLCPDLLLAQVRESRGKANLTKYREASVEVMEIMSRFAVIERASIDEAYVDLTSAVQERLQKLQGQPISADLLPSTYIEGLPQGPTTAEETVQKEGMRKQGLFQWLDSLQIDNLTSPDLQLTVGAVIVEEMRAAIERETGFQCSAGISHNKVLAKLACGLNKPNRQTLVSHGSVPQLFSQMPIRKIRSLGGKLGASVIEILGIEYMGELTQFTESQLQSHFGEKNGSWLYAMCRGIEHDPVKPRQLPKTIGCSKNFPGKTALATREQVQWWLLQLAQELEERLTKDRNDNDRVATQLVVSIRVQGDKRLSSLRRCCALTRYDAHKMSHDAFTVIKNCNTSGIQTEWSPPLTMLFLCATKFSASAPSSSTDITSFLSSDPSSLPKVPVTSSEAKTQGSGPAVTATKKATTSLESFFQKAAERQKVKEASLSSLTAPTQAPMSNSPSKPSLPFQTSQSTGTEPFFKQKSLLLKQKQLNNSSVSSPQQNPWSNCKALPNSLPTEYPGCVPVCEGVSKLEESSKATPAEMDLAHNSQSMHASSASKSVLEVTQKATPNPSLLAAEDQVPCEKCGSLVPVWDMPEHMDYHFALELQKSFLQPHSSNPQVVSAVSHQGKRNPKSPLACTNKRPRPEGMQTLESFFKPLTH
notes: recombinant, purchased from Enzymax LLC (Lexington, KY)
For B1, in series [1], the Km turned out to be 6.5 ± 0.03 µM, the kcat stood at 0.104 ± 0.00017 s⁻¹ and the kcat/Km came to 16000 M⁻¹ s⁻¹.

B2: yeast DNA polymerase η (yPol η) (Saccharomyces cerevisiae S288C) (protein)
chain: MSKFTWKELIQLGSPSKAYESSLACIAHIDMNAFFAQVEQMRCGLSKEDPVVCVQWNSIIAVSYAARKYGISRMDTIQEALKKCSNLIPIHTAVFKKGEDFWQYHDGCGSWVQDPAKQISVEDHKVSLEPYRRESRKALKIFKSACDLVERASIDEVFLDLGRICFNMLMFDNEYELTGDLKLKDALSNIREAFIGGNYDINSHLPLIPEKIKSLKFEGDVFNPEGRDLITDWDDVILALGSQVCKGIRDSIKDILGYTTSCGLSSTKNVCKLASNYKKPDAQTIVKNDCLLDFLDCGKFEITSFWTLGGVLGKELIDVLDLPHENSIKHIRETWPDNAGQLKEFLDAKVKQSDYDRSTSNIDPLKTADLAEKLFKLSRGRYGLPLSSRPVVKSMMSNKNLRGKSCNSIVDCISWLEVFCAELTSRIQDLEQEYNKIVIPRTVSISLKTKSYEVYRKSGPVAYKGINFQSHELLKVGIKFVTDLDIKGKNKSYYPLTKLSMTITNFDIIDLQKTVVDMFGNQVHTFKSSAGKEDEEKTTSSKADEKTPKLECCKYQVTFTDQKALQEHADYHLALKLSEGLNGAEESSKNLSFGEKRLLFSRKRPNSQHTATPQKKQVTSSKNILSFFTRKK
notes: as for B1
Regarding B2, in series [2], the Km came out at 9.5 ± 0.002 µM, the turnover number (kcat) came out at 0.0883 ± 0.0005 s⁻¹ and the kcat/Km came out at 9330 M⁻¹ s⁻¹.
